From patent US11224662B2, “Methods and therapeutics comprising ligand-targeted ELPs” (priority 2012, dated 2022)

Legend:
[1] = Temperature-dependent optical density (turbidity) of ELP fusion peptides; type: physicochemical; settings: 25 μM in PBS; for Transition Temperature T1: first phase transition; for Transition Temperature T1 / Transition Temperature T2: optical density; for Transition Temperature T2: second phase transition
Protocol: (§1) To explore the temperature-dependent phase behavior of the ELPs, optical density and hydrodynamic radius were observed over a range of temperatures. Knob-S96, S48148 and knob-S48148 were diluted to 25 μM in PBS on ice and the absorbance at 350 nm was monitored with a DU800 UV-Vis spectrophotometer (Beckman Coulter, Brea, Calif.) at a temperature gradient of 1° C./minute. […] Then 90 μL sample of was transferred into a 384 well microplate and covered with 20 μL mineral oil. The microplate and mineral oil were pre-chilled at 4° C. at least for 1 hour. The microplate was centrifuged at 4° C. to remove air bubbles from samples before and after addition of mineral oil. Then the sample was measured in a DynaPro plate reader (Wyatt Inc., Santa Barbara, Calif.) at temperature intervals of 1° C. The resulting hydrodynamic radii were collected and analyzed by Dynamics (Wyatt Inc., Santa Barbara, Calif.).

[2] = Dynamic light scattering of ELP nanoparticles; type: physicochemical
Protocol: as §1

[3] = test system: transformed mouse hepatocytes; test: Live cell uptake of rhodamine-conjugated ELP/knob-ELP in hepatocytes; type: cell-based; settings: 10 μM rhodamine-labeled, 30 minutes at 37° C., confocal microscopy, LYSOTRACKER green
Protocol: To track cellular uptake, the ELPs S48148 and knob-S48148 were conjugated with a detectable label, NHS-Rhodamine (Thermo Fisher Scientific Inc, Rockford, Ill.) via covalent modification of primary amines at the amino end of the peptide. For S48148, the only available amine is at the amino terminus; however, knob-S48148 has an additional 11 lysine residues that may be sites of modification. The conjugation was performed in 100 mM borate buffer for 2 hours at 4° C., and the conjugated ELP was separated by size exclusion chromatography on a PD10 desalting column (GE Healthcare, Piscataway, N.J.).
To observe uptake into mouse hepatocytes, cells were cultured on 35 mm glass coverslip-bottomed dishes with medium [(DMEM (4.5 g/L) containing 10% fetal bovine serum, g/ml insulin, and 0.02 [μg/ml epidermal growth factor]. Uptake studies were conducted when hepatocytes reached 70% confluence. After washing with warm fresh medium, hepatocytes were cultured in medium containing 10 μM of either S48148 or knob-S48148 conjugated with rhodamine, and 75 nM LYSOTRACKER® green. After 30 minutes incubation at 37° C., the cells were rinsed with warm fresh medium to remove the free knob-ELP/ELP in the medium. Next cells were incubated with 75 nM LYSOTRACKER® green in a 37° C. incubation chamber. […]

[4] = molecular target: T1, coxsackie adenovirus receptor (CAR) (Mus musculus, UniProt P97792); test: Competitive binding and uptake with anti-mouse CAR antibody in hepatocytes; type: cell-based; settings: 20 μg/mL anti-mouse CAR antibody 30 minutes at 37° C., then 10 μM rhodamine-conjugated knob-S48I48
T1 construct: This study was carried out in transformed mouse hepatocytes because of the high expression of CAR; endogenous in cells; host or cells: transformed mouse hepatocyte cell line
T1 sequence (P97792 20-365): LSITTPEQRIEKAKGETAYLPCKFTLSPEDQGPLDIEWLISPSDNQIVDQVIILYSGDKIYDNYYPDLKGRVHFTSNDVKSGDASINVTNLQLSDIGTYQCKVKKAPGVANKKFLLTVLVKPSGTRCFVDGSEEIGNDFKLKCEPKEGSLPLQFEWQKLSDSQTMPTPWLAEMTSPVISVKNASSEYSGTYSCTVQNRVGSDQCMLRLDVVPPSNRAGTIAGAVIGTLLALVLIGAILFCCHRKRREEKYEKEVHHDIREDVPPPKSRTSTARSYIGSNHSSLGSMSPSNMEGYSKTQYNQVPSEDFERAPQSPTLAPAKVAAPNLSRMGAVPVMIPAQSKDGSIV
Protocol: After confirming that the goat anti-mouse CAR antibody has a high affinity with the mouse hepatocytes, the anti-mouse CAR antibody (0.2 mg/mL) was diluted with warm medium 10-fold and incubated with the hepatocytes for 30 minutes at 37° C. Knob-S48148 conjugated with rhodamine was then added to the medium at a concentration of 10 μM. After 30 minutes incubation with knob-S48148 and 75 nM LYSOTRACKER® green, the hepatocytes were rinsed, then incubated in fresh warm medium with 75 nM LYSOTRACKER® green and imaged as described above.

[5] = test system: lacrimal gland acinar cells (LGACs); test: Suppression of transcytosis by Myosin Vb tail overexpression in LGACs; type: cell-based, rabbit; settings: 30 μM Cy5-conjugated, 60 minutes at 37° C.
Protocol: To obtain the indication of lumen area of LGACs, the cells were also pre-infected with Adenovirus EGFP-actin and helper virus at a 37° C. incubator with 5% CO2 overnight. To avoid the clash of fluorescence colours, the knob-S48148 used in transcytosis inhibition was conjugated with Cy5. The LGACs were grown on 35 mm glass-bottomed dishes for two days. Adenovirus EGFP-actin and helper virus with or without adenovirus mCherry Myosin Vb tail were added into dishes and cultured overnight. After waiting for expression of fluorescence, confocal microscopy was used to make sure adenovirus mCherry-myosin Vb tail and adenovirus EGFP-actin grow in LGACs. On the third day, knob-S48148 conjugated with Cy5 was then mixed with the cold medium at a concentration of 30 μM, warmed to 37° C. and then added into dishes. After 60 minutes incubation in a 37° C. incubator with 5% CO2, LGACs were thoroughly rinsed with fresh warm medium then immediately imaged under a Zeiss LSM 510 Meta confocal microscope system, which is equipped with argon and red and green He—Ne lasers and mounted on a vibration-free table. All images were captured under the confocal microscope and processed using ImageJ (NIH, USA).

LG of BALB/c mice = test: In vivo retention in the lacrimal gland after intra-lacrimal gland injection; set-up: species or system mouse; settings: 5 μL of 50 μM rhodamine-labelled, 1 h, compared with untargeted S48I48
Protocol: Twelve-week-old male BALB/c mice were administered, by intra-lacrimal gland injection, 5 μL of 50 μM rhodamine-labelled S48148 or rhodamine-labelled knob-S48148 (red) combined with 50 μg CF-dextran (10 kD, green). After 1 h, mice were euthanized and the glands were retrieved, embedded into the O.C.T. compound (Tissue-Tek), and frozen on dry ice. The frozen tissue blocks were cut into 10 μm thick sections and imaged using confocal fluorescence microscopy. The white arrows indicate endocytosed S48148 or knob-S48148 nanoparticles. The bar represents 10 μm. […] For this experiment, the mice were euthanatized by intraperitoneal injection with 55 mg ketamine and 14 mg xylazine per kilogram of body weight, followed by cervical dislocation. 5 μL of 50 μM rhodamine labelled knob-S48148 or S48148 was injected into the lacrimal glands of mice. After 60 minutes, the tear was collected from one eye of mouse by adding Carbachol into the related lacrimal gland. For another gland, it was removed after the tear collection was done at the first eye. After removal, LGs were snap frozen and stored on the dry ice. The frozen glands were cut into 10 μm thick sections and mounted on glass slides. Then the sections were examined with a confocal laser scanning microscope (LSM) at excitation wavelengths of 488 and 534 nm.

B1: knob-G(VPGSG)48(VPGIG)48Y (SEQ ID. NO: 10) (protein)
chain: GVPGSGVPGSGVPGSGVPGSGVPGSGVPGSGVPGSGVPGSGVPGSGVPGSGVPGSGVPGSGVPGSGVPGSGVPGSGVPGSGVPGSGVPGSGVPGSGVPGSGVPGSGVPGSGVPGSGVPGSGVPGSGVPGSGVPGSGVPGSGVPGSGVPGSGVPGSGVPGSGVPGSGVPGSGVPGSGVPGSGVPGSGVPGSGVPGSGVPGSGVPGSGVPGSGVPGSGVPGSGVPGSGVPGSGVPGSGVPGSGVPGIGVPGIGVPGIGVPGIGVPGIGVPGIGVPGIGVPGIGVPGIGVPGIGVPGIGVPGIGVPGIGVPGIGVPGIGVPGIGVPGIGVPGIGVPGIGVPGIGVPGIGVPGIGVPGIGVPGIGVPGIGVPGIGVPGIGVPGIGVPGIGVPGIGVPGIGVPGIGVPGIGVPGIGVPGIGVPGIGVPGIGVPGIGVPGIGVPGIGVPGIGVPGIGVPGIGVPGIGVPGIGVPGIGVPGIGVPGIGY
notes: assembles into nanoparticles
- Transition Temperature T1 [1]: 19.5 °C
- Transition Temperature T1 ([1]; listed as Knob-S48148): around 19.5 °C
- Critical aggregation temperature ([1]; optical density at 350 nm by UV-Vis spectrophotometer): 19.5 °C
- Transition Temperature T2 [1]: 60 °C
- Transition Temperature T2 ([1]; listed as Knob-S48148): around 60 °C
- size by dynamic light scattering (BSA; unimers of the ELPs) ([2]; BSA stable from 10 to 37° C., ELPs as unimers below assembly temperature): around 4 nm
- critical nanoparticle temperature (CNT) ([2]; dynamic light scattering): 19.5 °C
- Hydrodynamic radius (nm) at 37° C. ([2]; dynamic light scattering, 25 μM in PBS, 37° C.): 21.7 nm
- hydrodynamic diameter of nanoparticles ([2]; dynamic light scattering, self-assembled nanoparticles): around 40 nm
- cellular uptake / fluorescence localisation [3]: significant cellular uptake
- intracellular knob-S48I48 fluorescence after anti-mouse CAR antibody pre-incubation [4]: reduced the intracellular punctate fluorescence
- transcytosis with overexpressed mCherry myosin Vb tail [5]: significantly reduce the transcytosis
- retention in lacrimal gland (accumulation, surface association, internalization) (LG of BALB/c mice): stronger apical-membrane/luminal accumulation, surface association, and internalization
